Molecular target: c-Ha-Ras bound to GTP (Ras-GTP) (Homo sapiens (Human)) (UniProt P01112)
Experiment: assay not given

fold reduction in binding affinity against Raf(1-149): 10 fold
Substance: Raf(1-137)

From patent US5763571
